Data as given in paper PMC7797054, “Structural basis for inhibition of the type I-F CRISPR–Cas surveillance complex by AcrIF4, AcrIF7 and AcrIF14” (Nucleic Acids Research, 2020).

B1: Cas7f subunit of the Csy complex (natural protein, Pseudomonas aeruginosa)
chain: MSKPILSTASVLAFERKLDPSDALMSAGAWAQRDASQEWPAVTVREKSVRGTISNRLKTKDRDPAKLDASIQSPNLQTVDVANLPSDADTLKVRFTLRVLGGAGTPSACNDAAYRDKLLQTVATYVNDQGFAELARRYAHNLANARFLWRNRVGAEAVEVRINHIRQGEVARAWRFDALAIGLRDFKADAELDALAELIASGLSGSGHVLLEVVAFARIGDGQEVFPSQELILDKGDKKGQKSKTLYSVRDAAAIHSQKIGNALRTIDTWYPDEDGLGPIAVEPYGSVTSQGKAYRQPKQKLDFYTLLDNWVLRDEAPAVEQQHYVIANLIRGGVFGEAEEK
notes: Cas7f (Csy3) of Pseudomonas aeruginosa PA14; Stood in the assay as a subunit (six copies) of the whole Csy complex; It may carry the His tag of the complex (surmise); also called Cas7.1f-Cas7.6f; Cas7.4f; source: E. coli BL21 (DE3), co-expressed and purified as part of the Csy complex (HisTrap HP, HiTrap Q, Superdex 200)

Assays:
[1] = biological target: type I-F CRISPR-Cas surveillance complex (the Csy complex) from Pseudomonas aeruginosa PA14 (Pseudomonas aeruginosa) (UniProt Q02ML9); assay: cryo-EM structure; Csy incubated with AcrIF protein at molar ratio 1:10 for 1 h on ice, SEC in 20 mM HEPES pH 7.5, 100 mM KCl, 5% glycerol, 1 mM TCEP; 0.5 mg/ml on UltrAuFoil grids, Titan Krios 300 kV
[2] = biological target: the molecule itself; assay: as above

Sequence of type I-F CRISPR-Cas surveillance complex (the Csy complex) from Pseudomonas aeruginosa PA14 (Pseudomonas aeruginosa) (Q02ML9 whole entry, chain 1 of 3): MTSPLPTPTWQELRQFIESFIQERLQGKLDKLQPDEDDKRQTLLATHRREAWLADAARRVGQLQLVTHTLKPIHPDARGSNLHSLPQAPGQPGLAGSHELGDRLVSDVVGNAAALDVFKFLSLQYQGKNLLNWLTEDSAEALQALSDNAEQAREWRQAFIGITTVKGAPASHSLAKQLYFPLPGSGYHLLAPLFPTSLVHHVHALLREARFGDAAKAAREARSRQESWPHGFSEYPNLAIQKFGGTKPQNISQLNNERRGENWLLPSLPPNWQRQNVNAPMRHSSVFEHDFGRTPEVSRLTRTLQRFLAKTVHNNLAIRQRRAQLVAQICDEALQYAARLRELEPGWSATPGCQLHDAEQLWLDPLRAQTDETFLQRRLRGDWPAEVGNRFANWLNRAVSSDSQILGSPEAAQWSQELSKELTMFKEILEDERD
Sequence of type I-F CRISPR-Cas surveillance complex (the Csy complex) from Pseudomonas aeruginosa PA14 (Pseudomonas aeruginosa) (Q02MM0 whole entry, chain 2 of 3, further chain): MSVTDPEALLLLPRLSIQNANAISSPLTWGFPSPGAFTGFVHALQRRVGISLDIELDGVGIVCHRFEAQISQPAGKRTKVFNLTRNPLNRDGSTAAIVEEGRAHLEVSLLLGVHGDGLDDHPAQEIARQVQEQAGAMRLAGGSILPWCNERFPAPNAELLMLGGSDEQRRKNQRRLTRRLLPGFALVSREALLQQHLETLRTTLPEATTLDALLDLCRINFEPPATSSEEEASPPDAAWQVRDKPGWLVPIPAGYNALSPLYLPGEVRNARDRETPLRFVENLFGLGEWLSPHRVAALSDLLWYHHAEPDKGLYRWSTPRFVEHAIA
Sequence of type I-F CRISPR-Cas surveillance complex (the Csy complex) from Pseudomonas aeruginosa PA14 (Pseudomonas aeruginosa) (Q02MM2 whole entry, chain 4 of 3, further chain): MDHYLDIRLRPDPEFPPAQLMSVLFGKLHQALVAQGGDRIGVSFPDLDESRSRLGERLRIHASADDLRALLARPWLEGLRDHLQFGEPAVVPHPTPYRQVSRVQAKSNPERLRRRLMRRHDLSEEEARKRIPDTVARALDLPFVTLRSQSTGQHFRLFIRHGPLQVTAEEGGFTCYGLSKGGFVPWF

| Molecule | stoichiometry N [1] | stoichiometry N [2] |
| --- | --- | --- |
| AcrIF14 (natural protein) | 2 |  |
| B1 |  | 6 |
